This is an account of results in paper PMC7761029, “Identifying Genes Involved in Alkaloid Biosynthesis in Vinca minor through Transcriptomics and Gene Co-Expression Analysis” (Biomolecules, 2020).

Substrate in the data set “purified protein”: C[S+](CC[C@H](N)C(=O)O)C[C@H]1O[C@@H](n2cnc3c(N)ncnc32)[C@H](O)[C@@H]1O
Nature of the data set: purified protein. The settings on record: methyl donor, fixed 16-hydroxytabersonine, 1-200 µM SAM, 50 mM potassium phosphate pH 7, 25 mM ascorbic acid, 30 °C.

Substrate in data set [1]: [H][C@]12N3CC=C[C@@]1(CC)CC(C(=O)OC)=C1Nc4cc(O)ccc4[C@@]12CC3
Nature of the data set: initial velocities of 16-methoxytabersonine formation, LC-MS, Michaelis-Menten non-linear regression. It counts as biochemical, Vinca minor. The settings on record: fixed SAM, 0.2-100 µM substrate, 50 mM potassium phosphate pH 7, 25 mM ascorbic acid, 30 °C.

B1: Vm16OMT (Vinca minor) (protein)
chain: MDVQSDEFSKAQAHIWSQVLCHIPTATIKCAIELGIPDAIDNHGKAMTLAELTNSLPLINPSKAPFVRRLMRILVKNGFFSEQQITNDHIAYGLTPSSRILLKNEPLNLRGLVLANLDPSHMKSWVALSEWFQNDNEEAKTAFEIAHNGKNFWDYSAEDTEHAEIFNEAMASDSKLVSELLINTEYKLLFEGLTSMVDVGGGTGTIAKAIAKTFPNLNCTVFDLPHVVANLESMGNLEFVAGDMFVKIPPANAIFLKWILHDWNDEDCVKILKACKKAIPEKEKGGKVIVIDTVIGSKINDDESIKAQLSMDMGMMVDFASKERDEKEWASLFKEAGFSNYKIFPKLDFIRSVIEVYP
As for B1, the Km (commonly the concentration of substrate that gives half-maximal velocity) was determined as 46.2 ± 6.1 µM in “purified protein” and 0.94 ± 0.06 µM in data set [1]. The values for the kcat (in the data set “purified protein”; in data set [1]) were 0.039 s⁻¹ and 0.0144 s⁻¹, respectively.
